This is an account of results in PMC2859679 (Journal of molecular biology, 2009).

This series concerns the molecule itself. The series can be described thus: crystal structure.

B1: MhuD (mycobacterial heme utilization, degrader), Rv3592, from Mycobacterium tuberculosis (enzyme)
chain: MPVVKINAIEVPAGAGPELEKRFAHRAHAVENSPGFLGFQLLRPVKGEERYFVVTHWESDEAFQAWANGPAIAAHAGHRANPVATGASLLEFEVVLDVGGTGKTA
On to B1, for which the binding result is on record as “binds”.
